In patent US20190269786A1 (published 2019):
Where two headings read alike, the source gives them in different places.

Key:
[1] = biological target: T1, folate receptor 1 (FOLR1) (human, UniProt P15328 25-234); test: flow cytometry binding on T47D cells
[2] = biological target: T1, folate receptor 1 (FOLR1); test: flow cytometry binding on T47D cells; remark: listed apart in the source

T1 sequence (P15328 25-234): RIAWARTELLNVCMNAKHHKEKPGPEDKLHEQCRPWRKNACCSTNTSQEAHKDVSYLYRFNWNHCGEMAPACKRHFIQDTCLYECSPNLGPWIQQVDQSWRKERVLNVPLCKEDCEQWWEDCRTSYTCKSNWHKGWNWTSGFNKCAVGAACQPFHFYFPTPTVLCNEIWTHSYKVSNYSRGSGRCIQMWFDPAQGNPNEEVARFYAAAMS

B1: huMOV19 antibody (antibody, V domains shown)
VH: QVQLVQSGAEVVKPGASVKISCKASGYTFTGYFMNWVKQSPGQSLEWIGRIHPYDGDTFYNQKFQGKATLTVDKSSNTAHMELLSLTSEDFAVYYCTRYDGSRAMDYWGQGTTVTVSS
VL: DIVLTQSPLSLAVSLGQPAIISCKASQSVSFAGTSLMHWYHQKPGQQPRLLIYRASNLEAGVPDRFSGSGSKTDFTLTISPVEAEDAATYYCQQSREYPYTFGGGTKLEIKR
- EC50 [1]: 0.314 nM
- EC50 [2]: 0.144 nM
